Data reported in US20110105724A1 (published 2011).

T1: recombinant human Groβ (human, UniProt P19875 35-107)
T1 construct: also called Gro-beta
T1 sequence (looked up): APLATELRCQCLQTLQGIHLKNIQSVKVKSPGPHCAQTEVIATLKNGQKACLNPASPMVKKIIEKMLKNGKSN

T2: recombinant human ENA-78 (human, UniProt P42830 37-114)
T2 sequence (looked up): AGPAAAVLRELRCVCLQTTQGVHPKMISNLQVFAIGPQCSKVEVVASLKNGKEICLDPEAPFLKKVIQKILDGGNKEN

T3: human IL-8 (interleukin-8) (human, UniProt P10145 28-99, limits assumed)
T3 construct: also called recombinant human IL-8
T3 sequence (looked up): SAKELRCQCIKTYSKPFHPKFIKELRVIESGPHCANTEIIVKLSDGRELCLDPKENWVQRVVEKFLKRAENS


Key:
recombinant human Groβ = biological target: T1, recombinant human Groβ; assay: ELISA, hybridoma supernatant on immobilized recombinant chemokine
Excerpt: (§1) Hyridoma supernatants were screened for their antibody binding activities to recombinant human IL-8, Groβ and ENA-78, immobilized on ELISA plates. […] They were further assessed for their ability to recognize guinea pig and cynomolgus monkey orthologues. Selected hybridomas were cloned by limiting dilution cloning. The antibody designated 1C1.5E5 was one of the antibodies specific for human IL-8 that were selected for further analysis. Following humanization, the antibody combinations designated A0L0, A0L1, A0L2, AIL0, AIL1, and AIL2 also were determined to retain the ability to bind human IL-8.

recombinant human ENA-78 = biological target: T2, recombinant human ENA-78; assay: as above
Excerpt: as §1

[1] = biological target: T3, human IL-8 (interleukin-8); assay: SPR (Biacore T100/A100), mouse mAb captured on anti-mouse IgG-Fc, IL-8 as analyte, 1:1 model
Excerpt: Protein A or rabbit anti mouse IgG-Fc (Biacore BR-1005-14) was immobilised on a CM5 (Biacore BR-1000-14) chip by primary amine coupling in accordance with the manufactures instructions. Supernatant or purified from parental mouse mAb was captured on the antimouse IgG-Fc surface whilst chimeric antibody was captured on the Protein A surface. After capture defined concentrations of IL8 are passed over the antibody captured surface, a separate capture event was used for each analyte injection. […] An injection of buffer was also passed over the antibody captured surface and this was used for double referencing. For the analysis of the parental supernatant, an additional injection of an irrelevant mAb supernatant was injected over the antibody captured surface to detect any non-specific binding due to supernatant components. The data were analysed using the analysis software inherent to the machine, using the 1:1 model of binding. The work was carried out on the Biacore T100 or A100.

[2] = biological target: T3, human IL-8 (interleukin-8); assay: SPR (Biacore T100, 25 C), antibody captured on anti-human IgG, IL-8 as analyte, 1:1 model, Run 1
Excerpt: (§2) Briefly the method for Biacore analysis was as follows, anti human IgG (Biacore BR-1008-39) was immobilised on a CM5 sensor chip via primary amine coupling. The humanised or chimeric antibodies were captured on this surface at between 440-500 resonance units (RU's). IL8 was then passed over the captured antibody surface at defined concentrations with regeneration using 3M MgCl₂ after each cycle. A buffer injection over the antibody captured surface was used for double referencing. The run was carried out at 25° C. using HBS-EP buffer, on A Biacore T100 machine. The data was analysed using the 1:1 model in the analysis software inherent to the machine. Table below details the results from two separate runs. Run 1 used IL8 concentrations of 64 nM, 16 nM, 4 nM, 1 nM, 0.25 nM, whilst Run 2 used II8 concentrations 32 nM, 16 nM, 8 nM, 4 nM, 2 nM, 1 nM, 0.5 nM, 0.25 nM.

[3] = biological target: T3, human IL-8 (interleukin-8); assay: SPR (Biacore T100, 25 C), antibody captured on anti-human IgG, IL-8 as analyte, 1:1 model, Run 2
Excerpt: as §2

[4] = biological target: T3, human IL-8 (interleukin-8); assay: ELISA

Binder | binding result (recombinant human Groβ) | binding result (recombinant human ENA-78) | Kd [1] [nM] | koff [1] [s⁻¹] | Kd [2] [nM] | koff [2] [s⁻¹] | kon [2] [M⁻¹ s⁻¹] | Kd [3] [nM] | koff [3] [s⁻¹] | kon [3] [M⁻¹ s⁻¹] | binding result [4]
humanized antibody A0L1 (antibody, human IgG1, kappa, V domains shown, Humanized 1C1.5E5, human IgG1/kappa) VH: QVQLVQSGAEVKKPGASVKVSCKASGYTFTSYWMHWVRQAPGQGLEWMGEIDPSDSNTNYNQKFKGRVTMTRDTSISTAYMELSRLRSDDTAVYYCARELLHAVYWGQGTLVTVSS VL: DIQMTQSPSSLSASVGDRVTITCTASQDIHKYISWYQQKPGKAPKLLIHYTSTLQPGVPSRFSGSGSGTDFTFTISSLQPEDIATYYCLQYDNLWTFGQGTKVEIKR | – | – | – | – | 0.0676 | 0.001 | 1.49e+07 | 0.0679 | 0.00106 | 1.56e+07 | –
humanized antibody A1L1 (antibody, human IgG1, kappa, V domains shown, Humanized 1C1.5E5, human IgG1/kappa; also called AIL1) VH: QVQLVQSGAEVKKPGASVKVSCKASGYTFTSYWMHWVRQAPGQGLEWMGEIDPSDSNTNYNQKFKGKVTMTRDTSISTAYMELSRLRSDDTAVYYCARELLHAVYWGQGTLVTVSS VL: DIQMTQSPSSLSASVGDRVTITCTASQDIHKYISWYQQKPGKAPKLLIHYTSTLQPGVPSRFSGSGSGTDFTFTISSLQPEDIATYYCLQYDNLWTFGQGTKVEIKR | – | – | – | – | – | – | – | – | – | – | binds
humanized antibody A1L2 (antibody, human IgG1, kappa, V domains shown, Humanized 1C1.5E5, human IgG1/kappa; also called AIL2) VH: QVQLVQSGAEVKKPGASVKVSCKASGYTFTSYWMHWVRQAPGQGLEWMGEIDPSDSNTNYNQKFKGKVTMTRDTSISTAYMELSRLRSDDTAVYYCARELLHAVYWGQGTLVTVSS VL: DIQMTQSPSSLSASVGDRVTITCTASQDIHKYISWYQQKPGKAPKLLIHYTSTLQPGVPSRFSGSGSGTDYTFTISSLQPEDIATYYCLQYDNLWTFGQGTKVEIKR | – | – | – | – | – | – | – | – | – | – | binds

Further lines, results first:

binding result (recombinant human Groβ) | binding result (recombinant human ENA-78) | Kd [1] [nM] | koff [1] [s⁻¹] | Kd [2] [nM] | koff [2] [s⁻¹] | kon [2] [M⁻¹ s⁻¹] | Kd [3] [nM] | koff [3] [s⁻¹] | kon [3] [M⁻¹ s⁻¹] | binding result [4] | Binder
no binding | no binding | 0.0454 | 0.000184 | – | – | – | – | – | – | – | mouse monoclonal antibody 1C1.5E5 (antibody, V domains shown, also called 1C1.5E5 mAb) VH: QVQLQQPGVELVMPGASVKLSCKASGYTFTSYWMHWVKQRPGQGLEWIGEIDPSDSNTNYNQKFKGKATLTLDKSSSTAYMQLTSLTSEDSAVYYCARELLHAVYWGQGTTLTVSS VL: DIQMTQSPSSLSASLGGKVTITCTASQDIHKYISWFQHKPGKGPRLLIHYTSTLQPGIPSRFSGSGSGRDYSFSISNLEPEDVATYYCLQYDNLWTFGGGTKLDIKR
– | – | – | – | 0.0184 | 0.000506 | 2.75e+07 | 0.0211 | 0.000566 | 2.68e+07 | – | chimeric antibody HcLc made from murine 1C1.5E5 (antibody, human IgG1, kappa, V domains shown, Murine variable regions on human IgG1 and human kappa constant regions; also called chimera) VH: QVQLQQPGVELVMPGASVKLSCKASGYTFTSYWMHWVKQRPGQGLEWIGEIDPSDSNTNYNQKFKGKATLTLDKSSSTAYMQLTSLTSEDSAVYYCARELLHAVYWGQGTLVTVSS VL: DIQMTQSPSSLSASLGGKVTITCTASQDIHKYISWFQHKPGKGPRLLIHYTSTLQPGIPSRFSGSGSGRDYSFSISNLEPEDVATYYCLQYDNLWTFGGGTKLDIKR
– | – | – | – | 0.0872 | 0.000735 | 8.43e+06 | 0.0954 | 0.00075 | 7.87e+06 | – | humanized antibody A1L0 (antibody, human IgG1, kappa, V domains shown, Humanized 1C1.5E5, human IgG1/kappa; also called AIL0) VH: QVQLVQSGAEVKKPGASVKVSCKASGYTFTSYWMHWVRQAPGQGLEWMGEIDPSDSNTNYNQKFKGKVTMTRDTSISTAYMELSRLRSDDTAVYYCARELLHAVYWGQGTLVTVSS VL: DIQMTQSPSSLSASVGDRVTITCTASQDIHKYISWYQQKPGKAPKLLIYDTSTLQPGVPSRFSGSGSGTDFTFTISSLQPEDIATYYCLQYDNLWTFGQGTKVEIKR
– | – | – | – | 0.0712 | 0.000791 | 1.11e+07 | 0.0816 | 0.000772 | 9.5e+06 | – | humanized antibody A0L0 (antibody, human IgG1, kappa, V domains shown, Humanized 1C1.5E5, human IgG1/kappa) VH: QVQLVQSGAEVKKPGASVKVSCKASGYTFTSYWMHWVRQAPGQGLEWMGEIDPSDSNTNYNQKFKGRVTMTRDTSISTAYMELSRLRSDDTAVYYCARELLHAVYWGQGTLVTVSS VL: DIQMTQSPSSLSASVGDRVTITCTASQDIHKYISWYQQKPGKAPKLLIYDTSTLQPGVPSRFSGSGSGTDFTFTISSLQPEDIATYYCLQYDNLWTFGQGTKVEIKR
– | – | – | – | – | – | – | – | – | – | binds | humanized antibody A0L2 (antibody, human IgG1, kappa, V domains shown, Humanized 1C1.5E5, human IgG1/kappa) VH: QVQLVQSGAEVKKPGASVKVSCKASGYTFTSYWMHWVRQAPGQGLEWMGEIDPSDSNTNYNQKFKGRVTMTRDTSISTAYMELSRLRSDDTAVYYCARELLHAVYWGQGTLVTVSS VL: DIQMTQSPSSLSASVGDRVTITCTASQDIHKYISWYQQKPGKAPKLLIHYTSTLQPGVPSRFSGSGSGTDYTFTISSLQPEDIATYYCLQYDNLWTFGQGTKVEIKR
